The target in experiment [1] is Recombinant human Bcl-xL with a 25 amino acid truncation of its C-terminus (human) (UniProt Q07817). Kind of experiment: competition phage ELISA. (In general: ELISA stands for enzyme-linked immunosorbent assay.)
Experiment [2] has as its target mouse Mcl-1 with truncations of 151 amino acid residues at its N-terminus and 23 residues at its C-terminus (mouse) (UniProt P97287). Kind of experiment: competition phage ELISA.

Drawing on patent US20090048164A1, this text covers Fold/wt and IC50 for 37 molecules.

Recombinant human Bcl-xL with a 25 amino acid truncation of its C-terminus (human), sequence (Q07817 1-208): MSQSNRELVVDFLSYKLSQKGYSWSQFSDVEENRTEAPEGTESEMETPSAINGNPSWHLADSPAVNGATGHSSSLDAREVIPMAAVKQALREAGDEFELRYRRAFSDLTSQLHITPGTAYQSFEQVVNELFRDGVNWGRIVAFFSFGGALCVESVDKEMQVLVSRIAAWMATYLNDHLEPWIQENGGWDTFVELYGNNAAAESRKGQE
mouse Mcl-1 with truncations of 151 amino acid residues at its N-terminus and 23 residues at its C-terminus (mouse), sequence (P97287 152-308): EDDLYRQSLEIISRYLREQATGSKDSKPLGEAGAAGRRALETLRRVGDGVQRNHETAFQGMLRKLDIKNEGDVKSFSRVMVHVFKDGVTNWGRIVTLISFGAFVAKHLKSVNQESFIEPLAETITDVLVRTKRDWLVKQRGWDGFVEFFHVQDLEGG

A word on the IC50: it is the point on the concentration scale where inhibition reaches its midpoint. Take QEDIIANIARHLAQVGDSMDRSIPPG [Bid BH3 R6A, phage-displayed]: in experiment [1], the Fold/wt was determined as 3 fold and the half-inhibitory concentration (IC50) amounted to 31 nM. In experiment [2], the Fold/wt stood at 1 fold and the concentration for half-maximal inhibition (IC50) amounted to 88 nM.

On to QEDIIRNIARHLAQVGDSMARSIPPG [Bid BH3 D20A, phage-displayed], for which the Fold/wt in experiment [1] and in experiment [2] was 1 fold throughout. For the same molecule, the concentration for half-maximal inhibition (IC50) in experiment [1] is 13 nM; in experiment [2], 84 nM.

On to PSSTMGAVGRQLAIIGDDINRRYDSE [Bak BH3 Q7A, phage-displayed], for which the Fold/wt in experiment [1] and in experiment [2] was 1 fold throughout. For the same molecule, the IC50 was 48 nM in experiment [1] and 20 nM in experiment [2].

Regarding PSSTMGQVGAQLAIIGDDINRRYDSE [Bak BH3 R10A, phage-displayed], in experiment [1], the Fold/wt was 3 fold and the 50% inhibitory concentration (IC50) came to 163 nM. In experiment [2], this molecule gave a Fold/wt of 1 fold and an IC50 of 29 nM.

As to QEDIIRAIARHLAQVGDSMDRSIPPG [Bid BH3 N7A, phage-displayed], in experiment [1], the Fold/wt is 1 fold and the IC50 stood at 10 nM. In experiment [2], this molecule displayed a Fold/wt of 1 fold and an IC50 of 54 nM.

In the case of QEDIIRNIARHLAAVGDSMDRSIPPG [Bid BH3 Q14A, phage-displayed], in experiment [1], the Fold/wt was 1 fold and the concentration for half-maximal inhibition (IC50) was 13 nM. In addition, in experiment [2], the Fold/wt is 1 fold and the IC50 turned out to be 124 nM.

Take QEDIARNIARHLAQVGDSMDRSIPPG [Bid BH3 I5A, phage-displayed]: in experiment [1], the Fold/wt worked out at 2 fold and the 50% inhibitory concentration (IC50) came to 21 nM. Besides, in experiment [2], the Fold/wt worked out at 1 fold and the IC50 amounted to 144 nM.

With QADIIRNIARHLAQVGDSMDRSIPPG [Bid BH3 E2A, phage-displayed], in experiment [1], the Fold/wt was 1 fold and the IC50 was found to be 12 nM. In experiment [2], this molecule showed a Fold/wt of 1 fold and an IC50 of 140 nM.

In the case of AEDIIRNIARHLAQVGDSMDRSIPPG [Bid BH3 Q1A, phage-displayed], the Fold/wt is 2 fold in experiment [1] and 1 fold in experiment [2]. Further, the values for the IC50 in experiment [1] and in experiment [2] were 24 nM and 79 nM, respectively.

As for QEAIIRNIARHLAQVGDSMDRSIPPG [Bid BH3 D3A, phage-displayed], in experiment [1], the Fold/wt is 1 fold and the IC50 came to 15 nM. In experiment [2], the Fold/wt turned out to be 1 fold and the IC50 came to 96 nM.

Consider PASTMGQVGRQLAIIGDDINRRYDSE [Bak BH3 S2A, phage-displayed], for which, in experiment [1], the Fold/wt stood at 1 fold and the IC50 is 28 nM. In experiment [2], this molecule gave a Fold/wt of 1 fold and an IC50 of 16 nM.

Regarding QEDIIRNIARALAQVGDSMDRSIPPG [Bid BH3 H11A, phage-displayed], the Fold/wt in experiment [1] and in experiment [2] was 1 fold throughout. Besides, the results for the concentration for half-maximal inhibition (IC50) in experiment [1] and in experiment [2] were 9 nM and 89 nM, respectively.

NLWAAQRYGRELRRMSDEFADSFKKG [Bad BH3 V20A, phage-displayed]: in experiment [1], the Fold/wt was found to be 1 fold and the IC50 amounted to 3 nM.

Take PSSTMEQVGRQLAIIGDDINRRYDSE [Bak BH3 G6E, phage-displayed]: in experiment [1], the Fold/wt is under 1 fold and the half-maximal inhibitory concentration (IC50) stood at 14 nM. In experiment [2], this molecule yielded a Fold/wt of 1 fold and an IC50 of 11 nM.

As for NLWAAQRYGRELRRMSDEFVDSAKKG [Bad BH3 F23A, phage-displayed], in experiment [1], the Fold/wt is 2 fold and the IC50 was found to be 4 nM.

On to QEDIIRNIARHLAQVGDSMDRAIPPG [Bid BH3 S22A, phage-displayed], for which, in experiment [1], the Fold/wt amounted to 1 fold and the IC50 stood at 13 nM. Moreover, in experiment [2], the Fold/wt was 1 fold and the half-inhibitory concentration (IC50) worked out at 128 nM.

Turning to PSSTMGQVGRQLAIIGDAINRRYDSE [Bak BH3 D18A, phage-displayed], in experiment [1], the Fold/wt turned out to be 1 fold and the half-inhibitory concentration (IC50) was found to be 33 nM. For the same molecule, in experiment [2], the Fold/wt was found to be 1 fold and the IC50 came to 14 nM.

As for QEDIIRNIARHLAQVGDSMDRSIPPG [Bid BH3 wild type, phage-displayed], in experiment [1], the Fold/wt is 1 fold and the IC50 worked out at 11 nM. Also, in experiment [2], the Fold/wt stood at 1 fold and the IC50 turned out to be 99 nM.

QEDIIRNIARHLAQVGDSMDRSIAPG [Bid BH3 P24A, phage-displayed]: in experiment [1], the Fold/wt turned out to be 1 fold and the half-maximal inhibitory concentration (IC50) stood at 14 nM. In experiment [2], this molecule yielded a Fold/wt of 1 fold and a concentration for half-maximal inhibition (IC50) of 90 nM.

Turning to PSSTMGQVGRQLAAIGDDINRRYDSE [Bak BH3 I14A, phage-displayed], in experiment [1], the Fold/wt amounted to 1 fold and the half-maximal inhibitory concentration (IC50) was 66 nM. In experiment [2], this molecule displayed a Fold/wt of 1 fold and a half-inhibitory concentration (IC50) of 14 nM.

Consider QEDIIRNIARHLAQVGDSMDRSIPPE [Bid BH3 G26E, phage-displayed], for which, in experiment [1], the Fold/wt came to 2 fold and the IC50 is 17 nM. Besides, in experiment [2], the Fold/wt worked out at 1 fold and the IC50 came out at 94 nM.

PSSAMGQVGRQLAIIGDDINRRYDSE [Bak BH3 T4A, phage-displayed]: in experiment [1], the Fold/wt came to 1 fold and the IC50 was 28 nM. In addition, in experiment [2], the Fold/wt came to 1 fold and the IC50 turned out to be 14 nM.

PSSTAGQVGRQLAIIGDDINRRYDSE [Bak BH3 M5A, phage-displayed]: in experiment [1], the Fold/wt was under 1 fold and the half-inhibitory concentration (IC50) was determined as 15 nM. For the same molecule, in experiment [2], the Fold/wt came out at 1 fold and the IC50 was 18 nM.

With QEDIIRNIARHLAQVGDSMDRSIPAG [Bid BH3 P25A, phage-displayed], in experiment [1], the Fold/wt was 1 fold and the IC50 worked out at 16 nM. In experiment [2], this molecule gave a Fold/wt of 1 fold and a concentration for half-maximal inhibition (IC50) of 87 nM.

Turning to QEDIIRNIARHLAQVGDSMDRSAPPG [Bid BH3 I23A, phage-displayed], in experiment [1], the Fold/wt came to 1 fold and the 50% inhibitory concentration (IC50) was 15 nM. In experiment [2], this molecule showed a Fold/wt of 1 fold and a half-inhibitory concentration (IC50) of 142 nM.

Consider NLWAAQRYGRELRRMSDEFVDAFKKG [Bad BH3 S22A, phage-displayed], for which, in experiment [1], the Fold/wt turned out to be 2 fold and the half-maximal inhibitory concentration (IC50) is 4 nM.

Take QEDIIRNIARHLAQVGDSMDASIPPG [Bid BH3 R21A, phage-displayed]: the Fold/wt in experiment [1] stood at 3 fold; in experiment [2], 1 fold. Besides, the figures for the IC50 in experiment [1] and in experiment [2] were 32 nM and 132 nM, respectively.

Regarding QEDIIRNIARHLAQVGDAMDRSIPPG [Bid BH3 S18A, phage-displayed], in experiment [1], the Fold/wt was determined as 1 fold and the IC50 is 16 nM. In experiment [2], the Fold/wt is 1 fold and the IC50 came out at 104 nM.

On to NLWAAQRYGRELRRMSDEFVDSFAKG [Bad BH3 K24A, phage-displayed], for which, in experiment [1], the Fold/wt stood at 2 fold and the IC50 turned out to be 4 nM.

For QEDIIRNIAAHLAQVGDSMDRSIPPG [Bid BH3 R10A, phage-displayed], the figures for the Fold/wt in experiment [1] and in experiment [2] were 2 fold and 1 fold, respectively. Moreover, the values for the half-maximal inhibitory concentration (IC50) in experiment [1] and in experiment [2] were 26 nM and 130 nM, respectively.

NLWAAQRYGRELRRMSDEFVASFKKG [Bad BH3 D21A, phage-displayed]: in experiment [1], the Fold/wt was found to be 1 fold and the half-inhibitory concentration (IC50) was 2 nM.

As for PSATMGQVGRQLAIIGDDINRRYDSE [Bak BH3 S3A, phage-displayed], in experiment [1], the Fold/wt stood at 1 fold and the half-inhibitory concentration (IC50) came out at 25 nM. In experiment [2], this molecule displayed a Fold/wt of 1 fold and an IC50 of 17 nM.

As to NLWAAQRYGRELRRMSDEFVDSFKKE [Bad BH3 G26E, phage-displayed], in experiment [1], the Fold/wt turned out to be 1 fold and the half-maximal inhibitory concentration (IC50) worked out at 3 nM.

Turning to QEDAIRNIARHLAQVGDSMDRSIPPG [Bid BH3 I4A, phage-displayed], in experiment [1], the Fold/wt turned out to be 3 fold and the IC50 came to 31 nM. In experiment [2], the Fold/wt was determined as 1 fold and the IC50 came to 134 nM.

Turning to ASSTMGQVGRQLAIIGDDINRRYDSE [Bak BH3 P1A, phage-displayed], in experiment [1], the Fold/wt was 1 fold and the concentration for half-maximal inhibition (IC50) was determined as 31 nM. In experiment [2], this molecule returned a Fold/wt of 1 fold and an IC50 of 18 nM.

Regarding PSSTMGQVGRALAIIGDDINRRYDSE [Bak BH3 Q11A, phage-displayed], in experiment [1], the Fold/wt stood at 5 fold and the IC50 is 238 nM. In experiment [2], this molecule showed a Fold/wt of 1 fold and an IC50 of 16 nM.

Regarding NLWAAQRYGRELRRMSDEFVDSFKAG [Bad BH3 K25A, phage-displayed], in experiment [1], the Fold/wt was 2 fold and the 50% inhibitory concentration (IC50) was 4 nM.
